In patent publication US20160272691A1, “COMPOSITIONS AND METHODS FOR TREATING CONDITIONS ASSOCIATED WITH y-HERPESVIRUSES” (NDSU RESEARCH FOUNDATION, priority 2013, published 2016):

T1: γHV68 M11 residues 1-136 (murine γHV68), P89884
T1 chain: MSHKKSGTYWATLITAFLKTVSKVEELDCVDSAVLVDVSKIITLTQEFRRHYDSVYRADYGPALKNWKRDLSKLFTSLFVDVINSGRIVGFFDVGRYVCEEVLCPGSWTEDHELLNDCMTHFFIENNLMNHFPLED

T2: His6-tagged Bcl-XL (residues 1-208, N52D, N66D) (human), Q07817
T2 chain: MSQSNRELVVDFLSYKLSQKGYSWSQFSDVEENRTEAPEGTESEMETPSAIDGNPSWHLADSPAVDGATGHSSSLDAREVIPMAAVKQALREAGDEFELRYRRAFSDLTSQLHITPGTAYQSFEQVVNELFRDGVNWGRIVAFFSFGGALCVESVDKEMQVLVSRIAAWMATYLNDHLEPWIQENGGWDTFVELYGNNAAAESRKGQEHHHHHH


How the values were obtained:
[1] = target: T1, γHV68 M11 residues 1-136 (murine …); test: ITC
[2] = target: T1, γHV68 M11 residues 1-136 (murine …); test: ITC, 25 °C
[3] = target: T1, γHV68 M11 residues 1-136 (murine …); test: ITC (Table 4; quantity and unit in Table 1)
[4] = target: T2, His6-tagged Bcl-XL (residues 1-208, …); test: ITC
[5] = target: T2, His6-tagged Bcl-XL (residues 1-208, …); test: ITC, 25 °C
[6] = target: T2, His6-tagged Bcl-XL (residues 1-208, …); test: ITC (Table 4; quantity and unit in Table 1)
Bcl-2, P10415 [7] = test: not stated in the sentence (ITC implied)
KSHV Bcl-2 (KSHV) = test: not stated in the sentence (ITC implied)
Bcl-2, P10415 [8] = test: ITC (Table 4; quantity and unit in Table 1)

Chain of Bcl-2, P10415 (P10415 1-211 limits assumed): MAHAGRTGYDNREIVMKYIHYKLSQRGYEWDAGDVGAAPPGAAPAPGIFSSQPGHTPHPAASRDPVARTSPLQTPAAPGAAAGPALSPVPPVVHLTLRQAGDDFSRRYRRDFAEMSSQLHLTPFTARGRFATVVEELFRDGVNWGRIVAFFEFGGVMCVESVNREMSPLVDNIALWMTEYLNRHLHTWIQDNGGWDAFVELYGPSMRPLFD

Binder	Kd [2] [µM]	ΔG [2] [kcal/mol]	ΔH [2] [kcal/mol]	ΔS [2] [J/K · mol]	Kd [3] [µM]	Kd [5] [µM]	ΔG [5] [kcal/mol]	ΔH [5] [kcal/mol]	ΔS [5] [J/K · mol]	Kd [6] [µM]	further results
GSGTMENLSRRAKVTGDLFDIMSGQT (modifications not checked) [Beclin 1 BH3D-derived peptide L116A]	178	-5.11	-8.7	-50.3	178						fold reduction of binding affinity versus WT BH3D [1]: > 70 fold
GSGTMENLSRRLKVTGDLADIMSGQT (modifications not checked) [Beclin 1 BH3D-derived peptide F123A]	5.2	-7.22	-14.2	-97.8	5.2	408	-4.63	-7.34	-38	408	fold weakening of binding versus WT BH3D [4]: 10 fold; fold weakening of binding versus WT BH3D [1]: 4 fold
GSGTMENLSRRLKVTGDLFDIMSGQT (modifications not checked) [Beclin 1 BH3D peptide, wild type]	1.38	-8.01	-17	-126	1.4	1.95	-7.79	-10.4	-36.9	1.9	fold difference in TΔSapp versus binding to Bcl-XL [1]: 4 fold; fold difference in ΔHapp versus binding to Bcl-XL [1]: 2 fold; Kd (Bcl-2, P10415 [7]): 9 µM; Kd (KSHV Bcl-2 (KSHV)): 54 µM; Kd (Bcl-2, P10415 [8]): 10.4 µM
GSGTMENLSRRLAVTGDLFDIMSGQT (modifications not checked) [Beclin 1 BH3D-derived peptide K117A]	0.66	-8.44	-16.5	-113	0.7	18.9	-6.45	-9	-35.8	18.9	fold weakening of binding versus WT BH3D [4]: 10 fold; fold improvement of binding versus WT BH3D [1]: 2 fold; Kd (Bcl-2, P10415 [8]): 24.5 µM
GSGTMENLSRRLKVTEDLFDIMSGQT (modifications not checked) [Beclin 1 BH3D-derived peptide G120E]	36.5	-6.06	-12.5	-90	36.5						fold reduction of binding affinity versus WT BH3D [1]: 26 fold
GSGTMENASRRLKVTGDLFDIMSGQT (modifications not checked) [Beclin 1 BH3D-derived peptide L112A]	4.33	-7.32	-11.3	-56.1	4.3	110	-5.4	-10.1	-66.3	110	fold reduction of binding versus WT BH3D [1]: 3 fold
GSGTMENLSRRLKVTGALFDIMSGQT (modifications not checked) [Beclin 1 BH3D-derived peptide D121A]					1.3						
GSGTMENLSRRLKVTEALFDIMSGQT (modifications not checked) [Beclin 1 BH3D-derived G120E+D121A double mutant peptide]	6.43	-7.08	-14.9	-110	6.4						fold better affinity versus the G120E peptide [1]: 5.7 fold; fold weaker affinity versus WT BH3D [1]: 4.7 fold
